Target: T1, yUpf1-HD (220-851) (S. cerevisiae, UniProt P30771 220-851)
T1 sequence (looked up): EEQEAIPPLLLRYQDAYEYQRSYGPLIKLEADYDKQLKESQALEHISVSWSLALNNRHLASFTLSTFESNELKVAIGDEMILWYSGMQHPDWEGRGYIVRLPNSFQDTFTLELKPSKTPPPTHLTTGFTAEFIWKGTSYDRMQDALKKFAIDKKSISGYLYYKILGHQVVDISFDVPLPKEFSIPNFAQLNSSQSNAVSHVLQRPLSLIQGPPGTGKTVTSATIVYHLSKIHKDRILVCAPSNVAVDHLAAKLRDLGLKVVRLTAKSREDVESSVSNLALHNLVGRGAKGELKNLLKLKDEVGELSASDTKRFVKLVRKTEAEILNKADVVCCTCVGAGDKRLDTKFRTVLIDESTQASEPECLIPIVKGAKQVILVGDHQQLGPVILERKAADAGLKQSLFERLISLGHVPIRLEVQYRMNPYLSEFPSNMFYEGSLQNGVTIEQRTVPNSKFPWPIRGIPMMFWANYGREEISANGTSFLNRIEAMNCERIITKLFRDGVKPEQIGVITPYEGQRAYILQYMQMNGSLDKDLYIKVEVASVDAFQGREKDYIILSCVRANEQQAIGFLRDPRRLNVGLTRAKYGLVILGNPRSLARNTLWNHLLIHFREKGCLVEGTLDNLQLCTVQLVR
Assay: pull-down

B1: CBP-Nmd4 (natural protein, S. cerevisiae, UniProt Q12129 1-218, looked up)
chain: MTQYNFIIDASAFEKGLGNIKRWCSDCTEAVTLNFYIPTFTLNELDFLQQRRKSFAARESLKFIDRLDDSKFANLKVFIEFPEVLDIILWSDVMEHNDSSGKINIAKLPKRLKNLLKSCIYKCYLEGNEGLHWFLISEDPQIREMAMQCNIPSCSIVDVDSILSKDMNDKSFRESEKFNNMMLKNGTKEESENGREIIRTNFNKTVYASRGTGELWSP
binding result: binds

Reference: publication doi:10.1101/266833 (bioRxiv, 2018)
